# US20230416335A1
# Residue numbers refer to the chain shown, from its start.
# B1: ImmTAC molecule a79b64 (TCR-anti-CD3 fusion) (TCR, part only; not given: anti-CD3 scFv, linker, constant regions, not shown: a dimerising Fc or GST)
# TCR alpha, part: GDAKTTQPNSMESNEEEPVHLPCNHSTISGTDYIHWYRQLPSQGPEYVIHGLTSNVNNRMASLAIAEDRKSSTLILHRATLRDAAVYYCILILGHSRLGNYIATFGKGTKLSVIP
# TCR beta, part: DGGITQSPKYLFRKEGQNVTLSCEQNLNHDAMYWYRQDPGQGLRLIYYSQIMNDEQKGDIAEGYSVSREKKESFPLTVTSAQKNPTAFYLCASSWWTGGSAPIRFGPGTRLTVT
# B2: ImmTAC molecule a28b60 (TCR-anti-CD3 fusion) (TCR, part only; not given: anti-CD3 scFv, linker, constant regions, not shown: a dimerising Fc or GST)
# TCR alpha, part: B1 TCR alpha, part with L98A
# TCR beta, part: B1 TCR beta, part with N53G, S100A, A101S, P102E, R104S
# B3: ImmTAC molecule a28b75 (TCR-anti-CD3 fusion) (TCR, part only; not given: TCR constant regions and anti-CD3 scFv, not shown: a dimerising Fc or GST)
# TCR alpha, part: B1 TCR alpha, part with L98A
# TCR beta, part: B1 TCR beta, part with N53G, R104S
# B4: ImmTAC molecule a28b58 (TCR-anti-CD3 fusion) (TCR, part only; not given: anti-CD3 scFv, linker, constant regions, not shown: a dimerising Fc or GST)
# TCR alpha, part: B1 TCR alpha, part with L98A
# TCR beta, part: B1 TCR beta, part with N53G, A101S, R104S
# B5: ImmTAC molecule a28b74 (TCR-anti-CD3 fusion) (TCR, part only; not given: anti-CD3 scFv, linker, constant regions, not shown: a dimerising Fc or GST)
# TCR alpha, part: B1 TCR alpha, part with L98A
# TCR beta, part: B1 TCR beta, part with N53G, S100A, A101S
# B6: ImmTAC molecule a79b77 (TCR-anti-CD3 fusion) (TCR, part only; not given: anti-CD3 scFv, linker, constant regions, not shown: a dimerising Fc or GST)
# TCR alpha, part: B1 TCR alpha, part
# TCR beta, part: B1 TCR beta, part with N53G, S100A
# B7: ImmTAC molecule a79b75 (TCR-anti-CD3 fusion) (TCR, part only; not given: anti-CD3 scFv, linker, constant regions, not shown: a dimerising Fc or GST)
# TCR alpha, part: B1 TCR alpha, part
# TCR beta, part: B1 TCR beta, part with N53G, R104S
# B8: ImmTAC molecule a79b73 (TCR-anti-CD3 fusion) (TCR, part only; not given: anti-CD3 scFv, linker, constant regions, not shown: a dimerising Fc or GST)
# TCR alpha, part: B1 TCR alpha, part
# TCR beta, part: B1 TCR beta, part with N53G, S100A, R104S
# B9: ImmTAC molecule a79b58 (TCR-anti-CD3 fusion) (TCR, part only; not given: anti-CD3 scFv, linker, constant regions, not shown: a dimerising Fc or GST)
# TCR alpha, part: B1 TCR alpha, part
# TCR beta, part: B1 TCR beta, part with N53G, A101S, R104S
# B10: ImmTAC molecule a79b74 (TCR-anti-CD3 fusion) (TCR, part only; not given: anti-CD3 scFv, linker, constant regions, part only)
# TCR alpha, part: B1 TCR alpha, part
# TCR beta, part: B1 TCR beta, part with N53G, S100A, A101S
# B11: ImmTAC molecule a79b76 (TCR-anti-CD3 fusion) (TCR, part only; not given: anti-CD3 scFv, linker, constant regions, not shown: a dimerising Fc or GST)
# TCR alpha, part: B1 TCR alpha, part
# TCR beta, part: B1 TCR beta, part with N53G, A101S
# B12: ImmTAC molecule a28b57 (TCR-anti-CD3 fusion) (TCR, part only; not given: anti-CD3 scFv, linker, constant regions, not shown: a dimerising Fc or GST)
# TCR alpha, part: B1 TCR alpha, part with L98A
# TCR beta, part: B1 TCR beta, part with N53G, G98S, S100A, A101S, R104S
# B13: ImmTAC molecule a79b66 (TCR-anti-CD3 fusion) (TCR, part only; not given: anti-CD3 scFv, linker, constant regions, not shown: a dimerising Fc or GST)
# TCR alpha, part: B1 TCR alpha, part
# TCR beta, part: B1 TCR beta, part with N53G, W95P
# B14: ImmTAC molecule a79b69 (TCR-anti-CD3 fusion) (TCR, part only; not given: anti-CD3 scFv, linker, constant regions, not shown: a dimerising Fc or GST)
# TCR alpha, part: B1 TCR alpha, part
# TCR beta, part: B1 TCR beta, part with N53G, P102E
# B15: ImmTAC molecule a79b71 (TCR-anti-CD3 fusion) (TCR, part only; not given: anti-CD3 scFv, linker, constant regions, not shown: a dimerising Fc or GST)
# TCR alpha, part: B1 TCR alpha, part
# TCR beta, part: B1 TCR beta, part with N53G, R104Y
# B16: ImmTAC molecule a79b67 (TCR-anti-CD3 fusion) (TCR, part only; not given: anti-CD3 scFv, linker, constant regions, not shown: a dimerising Fc or GST)
# TCR alpha, part: B1 TCR alpha, part
# TCR beta, part: B1 TCR beta, part with N53G, G98S
# B17: ImmTAC molecule a79b63 (TCR-anti-CD3 fusion) (TCR, part only; not given: anti-CD3 scFv, linker, constant regions, not shown: a dimerising Fc or GST)
# TCR alpha, part: B1 TCR alpha, part
# TCR beta, part: B1 TCR beta, part with M52V, N53G
# B18: ImmTAC molecule a109b46 (TCR-anti-CD3 fusion) (TCR, part only; not given: anti-CD3 scFv, linker, constant regions, not shown: a dimerising Fc or GST)
# TCR alpha, part: B1 TCR alpha, part with I102Q
# TCR beta, part: B1 TCR beta, part with N53G
# Target: … (SEQ ID NO: 1)-HLA-A*02 complex (human)
# Assay: SPR (BIAcore) or BLI (Octet) per Example 3, immobilised biotinylated pHLA, 25 C
Binder,Kd,t1/2
B1,138 pM,6.38 h
B2,261 pM,2.8 h
B3,214 pM,5.1 h
B4,79 pM,8.9 h
B5,182 pM,3.7 h
B6,77.9 pM,8.6 h
B7,57.7 pM,16.9 h
B8,132 pM,4.6 h
B9,23.1 pM,28.7 h
B10,53.3 pM,12.5 h
B11,11.8 pM,58.3 h
B12,83 pM,8.3 h
B13,89 pM,9.16 h
B14,52 pM,20.4 h
B15,87 pM,14.9 h
B16,47 pM,12.7 h
B17,79 pM,10.8 h
B18,170 pM,7.31 h

# Target: … (SEQ ID NO: 1)-HLA-A*02 complex (human)
# Assay: cell-based or functional assay
row,Binder,"EC50 (mel624), IFN-γ ELISPOT, T cell activation"
1,B1,27.5 pM
2,B2,31.7 pM
3,B3,13.9 pM
4,B4,12 pM
5,B5,24.3 pM
6,B6,13.8 pM
7,B7,23.6 pM
8,B8,23.1 pM
9,B9,10.6 pM
10,B10,9.55 pM
11,B11,17.2 pM
12,B12,13.4 pM
13,B13,16.7 pM
14,B14,39.8 pM
15,B15,31.8 pM
16,B16,26.3 pM
17,B17,22.9 pM
18,B18,60.1 pM
